Experimental data as given in US20230303715A1.
pKd: −log10 of the molar value.

Experiments:
FcγRIIb [1] = molecular target: FcγRIIb (UniProt P31994); experiment: SPR; KD wt/KD mut vs 16588
FcγRIIa [2] = molecular target: FcγRIIa (UniProt P12318); experiment: SPR; KD wt/KD mut vs 16588
FcγRIIb [3] = molecular target: FcγRIIb (UniProt P31994); experiment: SPR Biacore, Ab on HER2 chip
FcγRIIa [4] = molecular target: FcγRIIa (UniProt P12318); experiment: SPR Biacore, Ab on HER2 chip
[5] = molecular target: soluble human FcRn (human) (UniProt P55899); experiment: SPR ProteOn, Ab on protein L, pH 6.0
FcγRIIb [6] = molecular target: FcγRIIb (UniProt P31994); experiment: SPR Biacore, Ab on HER2 chip; KD called ambiguous
FcγRIIa [7] = molecular target: FcγRIIa (UniProt P12318); experiment: SPR Biacore, Ab on HER2 chip; KD called ambiguous
[8] = molecular target: biotinylated human FcRn (produced by Protocol 1) (human) (UniProt P55899); experiment: SPR Biacore T200, FcRn on neutravidin, pH 6
[9] = molecular target: biotinylated human FcRn (produced by Protocol 1) (human) (UniProt P55899); experiment: SPR; KD wt/KD mut vs parental variant
FcγRI = FcγRI (UniProt P12314); experiment: SPR ProteOn, Ab on HER2 chip, equilibrium fit
FcγRIIaH [10] = molecular target: FcγRIIaH (UniProt P12318); experiment: SPR; KD wt/KD mut vs parental variant
FcγRIII [11] = molecular target: FcγRIII (UniProt P08637); experiment: SPR; KD wt/KD mut vs parental variant
FcγRIIaH [12] = molecular target: FcγRIIaH (UniProt P12318); experiment: SPR ProteOn, Ab on HER2 chip, equilibrium fit
FcγRIII [13] = molecular target: FcγRIII (UniProt P08637); experiment: SPR ProteOn, Ab on HER2 chip, equilibrium fit
FcγRIIb [14] = molecular target: FcγRIIb (UniProt P31994); experiment: SPR ProteOn, Ab on HER2 chip, equilibrium fit
FcγRIIaR [15] = molecular target: FcγRIIaR (UniProt P12318); experiment: SPR ProteOn, Ab on HER2 chip, equilibrium fit
FcγRIIb [16] = molecular target: FcγRIIb (UniProt P31994); experiment: SPR; KD wt/KD mut vs parental variant
FcγRIIaR [17] = molecular target: FcγRIIaR (UniProt P12318); experiment: SPR; KD wt/KD mut vs parental variant

Chain of FcγRIII (P08637 17-208 limits assumed): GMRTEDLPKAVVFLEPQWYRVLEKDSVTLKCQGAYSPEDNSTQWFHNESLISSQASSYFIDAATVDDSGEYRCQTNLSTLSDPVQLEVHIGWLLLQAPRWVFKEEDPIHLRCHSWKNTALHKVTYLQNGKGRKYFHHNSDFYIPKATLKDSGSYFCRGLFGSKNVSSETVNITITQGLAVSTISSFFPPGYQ
Chain of FcγRIIaR (P12318 34-217 H167R limits assumed): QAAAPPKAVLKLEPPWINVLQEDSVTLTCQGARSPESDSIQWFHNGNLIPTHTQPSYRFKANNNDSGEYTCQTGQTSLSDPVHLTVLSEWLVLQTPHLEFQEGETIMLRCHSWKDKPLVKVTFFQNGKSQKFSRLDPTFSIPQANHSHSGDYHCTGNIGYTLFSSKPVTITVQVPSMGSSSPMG
Chain of FcγRIIb (P31994 43-217 limits assumed): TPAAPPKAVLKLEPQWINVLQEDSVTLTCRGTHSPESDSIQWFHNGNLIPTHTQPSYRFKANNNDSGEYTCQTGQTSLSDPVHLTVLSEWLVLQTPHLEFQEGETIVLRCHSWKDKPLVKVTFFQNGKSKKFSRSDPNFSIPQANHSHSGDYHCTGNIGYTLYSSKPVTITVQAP
Chain of biotinylated human FcRn (produced by Protocol 1) (human) (P55899 24-297 limits assumed, chain 1 of 2): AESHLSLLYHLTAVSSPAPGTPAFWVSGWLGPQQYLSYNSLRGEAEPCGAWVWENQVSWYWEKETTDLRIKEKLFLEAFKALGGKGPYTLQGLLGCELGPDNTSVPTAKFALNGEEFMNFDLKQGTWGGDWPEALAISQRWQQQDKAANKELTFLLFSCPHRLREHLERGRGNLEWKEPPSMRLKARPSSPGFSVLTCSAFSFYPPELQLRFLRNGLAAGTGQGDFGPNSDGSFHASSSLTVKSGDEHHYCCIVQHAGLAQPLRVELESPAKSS
Chain of biotinylated human FcRn (produced by Protocol 1) (human) (P61769 21-119 limits assumed, chain 2 of 2, further chain): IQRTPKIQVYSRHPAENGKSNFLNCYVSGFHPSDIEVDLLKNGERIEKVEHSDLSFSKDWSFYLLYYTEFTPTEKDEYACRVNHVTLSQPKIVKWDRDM
Chain of FcγRI (P12314 16-292 limits assumed): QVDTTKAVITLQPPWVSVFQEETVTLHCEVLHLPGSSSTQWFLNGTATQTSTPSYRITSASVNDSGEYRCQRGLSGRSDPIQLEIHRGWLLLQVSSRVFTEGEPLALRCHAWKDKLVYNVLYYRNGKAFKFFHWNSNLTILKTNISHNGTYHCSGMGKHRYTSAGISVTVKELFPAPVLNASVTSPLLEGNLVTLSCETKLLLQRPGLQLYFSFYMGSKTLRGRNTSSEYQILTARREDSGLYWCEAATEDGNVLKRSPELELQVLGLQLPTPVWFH
Chain of FcγRIIaH (P12318 34-217 limits assumed): as the sequence (P12318 34-217 H167R limits assumed) above, with R134H counted along it
Chain of soluble human FcRn (human) (P55899 24-297 limits assumed, chain 1 of 2): as the sequence (P55899 24-297 limits assumed, chain 1 of 2) above
Chain of soluble human FcRn (human) (P61769 21-119 limits assumed, chain 2 of 2, further chain): as the sequence (P61769 21-119 limits assumed, chain 2 of 2, further chain) above

Substance	Relative FcγRIIb Binding (FcγRIIb [1])	Relative FcγRIIa Binding (FcγRIIa [2])	pKd (FcγRIIb [3])	pKd (FcγRIIa [4])	pKd [8]	pKd (FcγRI)	further results
trastuzumab Scaffold 1 variant 19322 (V259C_L306C) (antibody)	1.02	1.45	5.43	6.12	–	–	–
trastuzumab Scaffold 1 variant 19323 (R292C_V302C) (antibody)	0.22	0.3	4.75	5.44	–	–	–
trastuzumab Scaffold 1 variant 19324 (D249C_P257C) (antibody)	–	–	4.85	–	–	–	–
trastuzumab Scaffold 1 variant 19325 (F275C_S304C) (antibody)	–	–	5.31	–	–	–	–
trastuzumab Scaffold 1 variant 19326 (V263C_V302C) (antibody)	1.35	1.14	–	–	–	–	pKd [5]: 6.22; pKd (FcγRIIb [6]): 5.55; pKd (FcγRIIa [7]): 6.02
trastuzumab Scaffold 1 variant 19327 (L242C_I336C) (antibody)	1.18	0.97	5.49	5.94	–	–	–
trastuzumab Scaffold 1 variant 19328 (T289C_S304C) (antibody)	1.85	1.6	5.69	6.16	–	–	–
trastuzumab Scaffold 1 variant 19329 (F243C_T260C) (antibody)	0.39	0.38	5.01	5.53	–	–	–
trastuzumab Scaffold 1 variant 19331 (V240C_I332C) (antibody)	0.23	0.02	4.77	4.20	–	–	–
trastuzumab Scaffold 6 (N297A) variant v31514 (A287F_M428F) (antibody)	–	–	–	–	6.43	7.79	Fold [9]: 1.3
trastuzumab Scaffold 6 (N297A) variant v31515 (A287F_T250V) (antibody)	–	–	–	–	6.26	7.73	Fold [9]: 0.8
trastuzumab Scaffold 6 (N297A) variant v31516 (M428F_T250V) (antibody)	–	–	–	–	6.44	7.70	–
trastuzumab Scaffold 7 (S239D/I332E) variant v31518 (A287F_M428F) (antibody)	–	–	–	–	6.56	10.87	Fold (FcγRIIaH [10]): 1.2; Fold [9]: 1.2; Fold (FcγRIII [11]): 1; pKd (FcγRIIaH [12]): 6.17; pKd (FcγRIII [13]): 7.51; pKd (FcγRIIb [14]): 5.94; pKd (FcγRIIaR [15]): 6.16
trastuzumab Scaffold 7 (S239D/I332E) variant v31519 (A287F_T250V) (antibody)	–	–	–	–	6.33	10.97	pKd (FcγRIIaH [12]): 6.18; pKd (FcγRIII [13]): 7.54; pKd (FcγRIIaR [15]): 6.16
trastuzumab Scaffold 7 (S239D/I332E) variant v31520 (M428F_T250V) (antibody)	–	–	–	–	6.54	10.84	Fold (FcγRIIaH [10]): 1.2; Fold [9]: 1.2; Fold (FcγRIIb [16]): 1.1; Fold (FcγRIIaR [17]): 1.2; pKd (FcγRIIaH [12]): 6.19; pKd (FcγRIII [13]): 7.49; pKd (FcγRIIb [14]): 5.95; pKd (FcγRIIaR [15]): 6.18
trastuzumab full-size antibody with N297A (Scaffold 6), variant v31513	–	–	–	–	6.33	7.59	–
trastuzumab full-size antibody with S239D and I332E (Scaffold 7), variant v31517	–	–	–	–	6.47	–	pKd (FcγRIIaH [12]): 6.11; pKd (FcγRIII [13]): 7.49; pKd (FcγRIIb [14]): 5.90; pKd (FcγRIIaR [15]): 6.11
trastuzumab full-size antibody with homodimeric IgG1 Fc (Scaffold 1), variant 16588 (WT)	–	–	5.42	–	–	–	pKd [5]: 6.19
trastuzumab variant v17078 (WT) (antibody)	–	–	–	–	6.53	10.05	pKd (FcγRIII [13]): 5.83; pKd (FcγRIIb [14]): 5.16; pKd (FcγRIIaR [15]): 5.68
